Some results are limits rather than exact numbers.

Experiment in all cases: cell-based or functional assay
In one test the target is T1, caspase-3 (human) (UniProt P42574).
T1 sequence: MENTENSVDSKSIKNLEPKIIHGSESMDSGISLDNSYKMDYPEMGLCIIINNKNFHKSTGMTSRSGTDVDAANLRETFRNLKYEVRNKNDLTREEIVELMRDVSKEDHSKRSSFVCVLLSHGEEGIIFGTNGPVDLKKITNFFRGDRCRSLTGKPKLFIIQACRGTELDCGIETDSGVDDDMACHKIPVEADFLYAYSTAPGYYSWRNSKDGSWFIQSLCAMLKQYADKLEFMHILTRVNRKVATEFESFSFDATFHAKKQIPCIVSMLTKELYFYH

In test [1] the target is HIV-1 gp41 of WEAU 16-8 (primary virus) (HIV-1 (primary isolate WEAU 16-8)).
For test [2], the target named is HIV-1 gp41 of NL4-3 (WT lab-adapted virus) (HIV-1 (NL4-3)).

For the substance Z-DEVD-FMK (peptide), in the test with caspase-3 (human), the decrease in CD4 T-cell death in HIV-infected HLACs was found to be 50% and the percentage of viable CD4 T cells in HIV-1-infected HLACs after 3 days (flow cytometry; inhibitors 20 µM each) was 50%.
enfuvirtide (T20) (peptide) displayed a viral infection of HLACs (p24gag FLAQ assay, day 9) in test [1] of 0.1 µg/mL. For the same substance, in test [2], the viral infection of HLACs (p24gag FLAQ assay, day 9) is above 2 µg/mL and the viral infection of HLACs (p24gag FLAQ assay, day 9) (µg/ml (printed 'gi/ml')) was determined as 10.

Values taken from patent US9956260.
